Results as given in patent publication US20210063414A1, “METHODS FOR PREVENTING AND/OR TREATING BONE LOSS CONDITIONS BY MODULATING IRISIN” (Dana-Farber Cancer Institute, Inc., priority 2018, published 2021).

How the values were obtained:
Assay in all cases: Crosslinking/co-immunoprecipitation/mass spectrometry (TMT quantitative proteomics) to identify irisin receptors
Type in all cases: binding
[1] = target: T1, MLO-Y4 cell surface proteins (Mus musculus, UniProt P52825); conditions: co-precipitated protein Cpt2 (CPT2_MOUSE)
T1 construct: endogenous in cells; host or cells: MLO-Y4
T1 sequence (P52825 26-658): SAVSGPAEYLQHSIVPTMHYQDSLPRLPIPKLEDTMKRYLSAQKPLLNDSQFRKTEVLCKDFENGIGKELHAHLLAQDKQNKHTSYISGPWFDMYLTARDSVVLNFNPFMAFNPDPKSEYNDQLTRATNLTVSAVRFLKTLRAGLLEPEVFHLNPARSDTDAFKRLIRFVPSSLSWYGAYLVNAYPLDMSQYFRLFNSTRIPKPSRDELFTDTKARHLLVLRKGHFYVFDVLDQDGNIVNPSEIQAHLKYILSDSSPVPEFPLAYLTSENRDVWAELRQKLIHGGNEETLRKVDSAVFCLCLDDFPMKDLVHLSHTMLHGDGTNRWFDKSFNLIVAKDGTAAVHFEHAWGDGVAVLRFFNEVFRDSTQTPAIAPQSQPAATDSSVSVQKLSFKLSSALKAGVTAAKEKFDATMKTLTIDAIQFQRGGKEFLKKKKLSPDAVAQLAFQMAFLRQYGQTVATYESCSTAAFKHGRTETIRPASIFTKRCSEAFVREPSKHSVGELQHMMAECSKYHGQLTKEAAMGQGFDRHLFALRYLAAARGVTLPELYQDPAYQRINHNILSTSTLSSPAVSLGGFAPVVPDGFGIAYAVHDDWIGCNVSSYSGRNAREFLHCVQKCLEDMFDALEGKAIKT
In short: (§1)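 Relative protein abundance came from 6-plex TMT MS3 quantitation on an Orbitrap Fusion Lumos, after in-gel trypsin digestion of Coomassie-stained SDS-PAGE lanes. Input was a Ni-NTA pulldown (250 mM imidazole elution) of lysates from murine MLO-Y4 cells. These cells were treated on ice with His-tagged irisin or adipsin (10 nM, 20 min) in serum-free medium, then crosslinked with 1.5 mM DTSSP for 30 min.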

[2] = target: T2, MLO-Y4 cell surface proteins (Mus musculus, UniProt P60843); conditions: co-precipitated protein Eif4a1 (IF4A1_MOUSE)
T2 construct: endogenous in cells; host or cells: MLO-Y4
T2 sequence (P60843 whole entry): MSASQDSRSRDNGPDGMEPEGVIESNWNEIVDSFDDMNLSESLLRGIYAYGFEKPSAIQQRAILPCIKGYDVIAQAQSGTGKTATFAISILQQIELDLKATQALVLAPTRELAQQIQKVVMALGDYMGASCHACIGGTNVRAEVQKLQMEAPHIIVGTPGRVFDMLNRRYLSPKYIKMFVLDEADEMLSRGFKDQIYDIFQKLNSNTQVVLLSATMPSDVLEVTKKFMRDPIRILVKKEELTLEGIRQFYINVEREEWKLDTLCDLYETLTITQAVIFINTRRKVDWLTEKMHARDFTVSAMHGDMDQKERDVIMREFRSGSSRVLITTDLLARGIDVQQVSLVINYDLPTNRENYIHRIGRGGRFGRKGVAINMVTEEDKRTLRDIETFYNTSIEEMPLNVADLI
In short: as §1

[3] = target: T3, MLO-Y4 cell surface proteins (Mus musculus, UniProt Q62028); conditions: co-precipitated protein Pla2r1 (PLA2R_MOUSE)
T3 construct: endogenous in cells; host or cells: MLO-Y4
T3 sequence (Q62028 27-1487): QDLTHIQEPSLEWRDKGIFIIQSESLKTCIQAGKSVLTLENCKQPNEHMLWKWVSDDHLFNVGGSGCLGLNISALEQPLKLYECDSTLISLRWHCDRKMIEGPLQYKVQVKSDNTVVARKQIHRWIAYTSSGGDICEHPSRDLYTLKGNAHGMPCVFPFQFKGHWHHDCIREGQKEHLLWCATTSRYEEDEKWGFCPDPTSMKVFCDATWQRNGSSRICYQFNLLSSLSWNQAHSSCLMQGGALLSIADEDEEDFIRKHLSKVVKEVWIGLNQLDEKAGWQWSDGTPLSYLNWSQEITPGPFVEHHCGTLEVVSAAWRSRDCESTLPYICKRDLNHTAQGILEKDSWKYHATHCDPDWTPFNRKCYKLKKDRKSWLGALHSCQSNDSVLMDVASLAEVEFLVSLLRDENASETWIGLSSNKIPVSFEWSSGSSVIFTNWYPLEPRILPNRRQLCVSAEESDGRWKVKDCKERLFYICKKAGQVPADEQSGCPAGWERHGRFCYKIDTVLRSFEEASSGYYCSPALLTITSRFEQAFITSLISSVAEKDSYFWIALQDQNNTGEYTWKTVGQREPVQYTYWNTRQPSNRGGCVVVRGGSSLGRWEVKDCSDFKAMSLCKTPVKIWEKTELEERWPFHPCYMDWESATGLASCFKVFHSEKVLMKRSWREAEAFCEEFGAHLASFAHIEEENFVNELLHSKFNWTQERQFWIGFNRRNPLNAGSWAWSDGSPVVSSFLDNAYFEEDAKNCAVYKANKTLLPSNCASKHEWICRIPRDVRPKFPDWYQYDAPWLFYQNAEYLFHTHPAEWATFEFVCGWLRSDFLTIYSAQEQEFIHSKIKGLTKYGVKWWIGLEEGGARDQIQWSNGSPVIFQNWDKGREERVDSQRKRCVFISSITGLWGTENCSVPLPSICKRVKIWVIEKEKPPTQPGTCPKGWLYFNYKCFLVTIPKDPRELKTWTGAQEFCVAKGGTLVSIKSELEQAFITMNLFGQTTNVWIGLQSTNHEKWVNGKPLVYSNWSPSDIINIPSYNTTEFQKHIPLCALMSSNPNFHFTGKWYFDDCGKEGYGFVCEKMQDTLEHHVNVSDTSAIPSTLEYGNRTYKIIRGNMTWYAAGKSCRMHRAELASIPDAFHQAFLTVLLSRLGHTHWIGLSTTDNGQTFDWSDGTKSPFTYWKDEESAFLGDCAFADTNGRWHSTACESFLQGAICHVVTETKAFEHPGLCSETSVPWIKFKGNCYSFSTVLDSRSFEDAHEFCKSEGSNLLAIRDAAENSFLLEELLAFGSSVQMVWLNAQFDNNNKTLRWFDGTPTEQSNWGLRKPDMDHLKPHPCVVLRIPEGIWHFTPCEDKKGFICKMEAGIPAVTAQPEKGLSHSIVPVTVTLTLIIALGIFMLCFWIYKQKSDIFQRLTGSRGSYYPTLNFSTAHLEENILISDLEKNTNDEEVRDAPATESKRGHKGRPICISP
In short: as §1

[4] = target: T4, MLO-Y4 cell surface proteins (Mus musculus, UniProt Q9DCW4); conditions: co-precipitated protein Etfb (ETFB_MOUSE)
T4 construct: endogenous in cells; host or cells: MLO-Y4
T4 sequence (Q9DCW4 1-255): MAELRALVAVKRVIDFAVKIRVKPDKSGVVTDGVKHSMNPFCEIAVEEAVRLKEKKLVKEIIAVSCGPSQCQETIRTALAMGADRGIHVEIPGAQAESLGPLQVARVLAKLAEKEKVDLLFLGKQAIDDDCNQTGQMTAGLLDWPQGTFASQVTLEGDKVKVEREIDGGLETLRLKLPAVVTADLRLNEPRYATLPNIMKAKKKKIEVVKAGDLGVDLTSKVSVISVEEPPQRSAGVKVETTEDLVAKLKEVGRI
In short: as §1

[5] = target: T5, MLO-Y4 cell surface proteins (Mus musculus, UniProt Q9JHS4); conditions: co-precipitated protein Clpx (CLPX_MOUSE)
T5 construct: endogenous in cells; host or cells: MLO-Y4
T5 sequence (Q9JHS4 57-634): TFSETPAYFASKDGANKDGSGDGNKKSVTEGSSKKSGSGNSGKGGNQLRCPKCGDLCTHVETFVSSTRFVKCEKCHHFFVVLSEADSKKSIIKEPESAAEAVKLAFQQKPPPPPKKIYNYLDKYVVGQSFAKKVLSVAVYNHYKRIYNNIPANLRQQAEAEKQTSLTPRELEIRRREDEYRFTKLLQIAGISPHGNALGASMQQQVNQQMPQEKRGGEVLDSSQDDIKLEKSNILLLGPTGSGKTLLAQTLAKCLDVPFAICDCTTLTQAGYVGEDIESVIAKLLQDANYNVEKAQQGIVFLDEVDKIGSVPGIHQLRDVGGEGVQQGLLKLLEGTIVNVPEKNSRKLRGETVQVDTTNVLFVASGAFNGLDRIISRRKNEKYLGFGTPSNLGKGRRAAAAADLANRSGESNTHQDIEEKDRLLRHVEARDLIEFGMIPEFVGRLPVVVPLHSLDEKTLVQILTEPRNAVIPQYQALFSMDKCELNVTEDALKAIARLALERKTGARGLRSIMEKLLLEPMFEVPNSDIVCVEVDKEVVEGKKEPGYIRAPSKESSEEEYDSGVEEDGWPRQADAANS
In short: as §1

adipsin
TMT signal-to-noise ratio [1]: 177.54
TMT signal-to-noise ratio [2]: 136.49
TMT signal-to-noise ratio [3]: 519.664
TMT signal-to-noise ratio [4]: 730.275
TMT signal-to-noise ratio [5]: 1517.78
